Reference: patent US20110143428A1 (Genentech, published 2011)

Target: T1, hVEGF-C (human, UniProt P49767)
T1 construct: unlabelled; also called human VEGF-C
T1 sequence (VEGF-C, looked up): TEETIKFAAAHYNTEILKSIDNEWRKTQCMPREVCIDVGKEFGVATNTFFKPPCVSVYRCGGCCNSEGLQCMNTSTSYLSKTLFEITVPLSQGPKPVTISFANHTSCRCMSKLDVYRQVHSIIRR
Experiment: phage competition ELISA: phage-displayed clone incubated with increasing soluble hVEGF-C, unbound phage captured on hVEGF-C coated plate, anti-M13-HRP, OD450

B1: VC1.1 (antibody, V domains shown)
VH: EVQLVESGGGLVQPGGSLRLSCAASGFTFSDSDIHWVRQAPGKGLEWVAWISPYSGYTDYADSVKGRFTISADTSKNTAYLQMNSLRAEDTAVYYCARLFKVIFDYWGQGTLVTVSS
VL: DIQMTQSPSSLSASVGDRVTITCRASQDVSTAVAWYQQKPGKAPKLLIYSASFLYSGVPSRFSGSGSGTDFTLTISSLQPEDFATYYCQQSYTTPPTFGQGTKVEIK
notes: also called clone VC1.1
IC50: 41.5 nM
